Legend:
[1] = target: Human P-selectin (CD62P) on human platelets in whole blood (human) (UniProt P16109); assay: flow cytometry, human whole blood, platelets activated with 2.5 uM ADP
[2] = target: Human P-selectin (CD62P) on human platelets in whole blood (human) (UniProt P16109); assay: flow cytometry, human whole blood, platelets activated with 200 uM TRAP
[3] = target: Human P-selectin (CD62P) on human platelets in whole blood (human) (UniProt P16109); assay: flow cytometry, human whole blood, non-activated platelets

Sequence of UniProt P16109 (P16109 42-830): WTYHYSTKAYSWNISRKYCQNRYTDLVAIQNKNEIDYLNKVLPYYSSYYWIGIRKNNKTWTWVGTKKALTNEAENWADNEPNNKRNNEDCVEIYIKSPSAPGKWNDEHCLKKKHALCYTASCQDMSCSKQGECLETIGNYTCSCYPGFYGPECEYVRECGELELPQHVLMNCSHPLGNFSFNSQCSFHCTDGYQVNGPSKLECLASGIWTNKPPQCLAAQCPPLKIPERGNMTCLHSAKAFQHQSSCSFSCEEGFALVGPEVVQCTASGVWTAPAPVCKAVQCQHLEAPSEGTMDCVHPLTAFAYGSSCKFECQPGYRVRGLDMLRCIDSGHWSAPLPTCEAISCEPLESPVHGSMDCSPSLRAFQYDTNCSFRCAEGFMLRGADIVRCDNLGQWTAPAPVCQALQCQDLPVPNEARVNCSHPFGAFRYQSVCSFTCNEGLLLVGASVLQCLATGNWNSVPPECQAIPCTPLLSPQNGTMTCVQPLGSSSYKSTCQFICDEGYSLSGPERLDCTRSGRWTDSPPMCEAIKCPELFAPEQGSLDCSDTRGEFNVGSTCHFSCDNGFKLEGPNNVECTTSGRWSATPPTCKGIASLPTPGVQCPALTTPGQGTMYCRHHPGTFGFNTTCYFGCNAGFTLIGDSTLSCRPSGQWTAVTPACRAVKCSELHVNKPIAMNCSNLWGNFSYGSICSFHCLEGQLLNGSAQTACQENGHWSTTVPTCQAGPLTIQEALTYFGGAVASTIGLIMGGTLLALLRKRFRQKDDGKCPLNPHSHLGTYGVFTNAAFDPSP

## PC5-labeled antihuman P-selectin (CD62P, AK-4 clone) (antibody)
[1]
  positivity (% of platelets): 73.4%
[2]
  positivity (% of platelets): 97.8%
[3]
  positivity (% of platelets): 0.4%
